The values that follow are results of earlier work, collected in US20190382746.

By Kd is commonly meant the constant that tells how readily two partners part at equilibrium.

For series [1], the system named is PP7 coat protein (Pseudomonas phage PP7). The note with it: CITED? source not stated; cited from earlier work.
Series [2] relates to RSG1.2 peptide (synthetic). The note with it: CITED? source not stated; cited from earlier work.

Consider PP7 aptamer (25 nt), for which the Kd in series [1] was 2 nM. Take RSG1.2 aptamer (HIV RRE, 34 nt): the Kd in series [2] is 6 nM.
